B1: Barstar, P11540 (parent)
chain: MKKAVINGEQIRSISDLHQTLKKELALPEYYGENLDALWDCLTGWVEYPLVLEWRQFEQSKQLTENGAESVLQVFREAKAEGCDITIILS

Variants of: B1
Conditions: Bacillus amyloliquefaciens; pH 7.4; 25 °C; Thermal; DSC; Sodium phosphate 50 mM; reversible: yes; structure 1BTA; whole UniProt chain shown
With MKKAVINGEQIRSISDLHQTLKKELALPEYYGENLDALWDCLTGWVEYPLVLEWRQFEQSKQLTENGAESVLQVFREAKAEGADITIILS the “heat capacity change of unfolding” value was 0.86 kcal/mol/K and the unfolding free energy was 6.1 kcal/mol.

Same assay, conditions: Bacillus amyloliquefaciens; pH 7.4; Thermal; DSC; Sodium phosphate 50 mM; reversible: yes; structure 1BTA; whole UniProt chain shown
In the case of MKKAVINGEQIRSISDLHQTLKKELALPEYYGENLDALWDCLTGWVEYPLVLEWRQFEQSKQLTENGAESVLQVFREAKAEGADITIILS, the Tm is reported as 71.4 °C, the “change of melting temperature, mutant - wild type (higher = more stable)” value is reported as -1.4 °C and the “heat capacity change of unfolding” value is reported as 0.86 kcal/mol/K. The “unfolding enthalpy (calorimetric)” value was 66 kcal/mol.

Reference: FireProtDB (doi:10.1002/pro.5560061014)
